From patent publication US20100303812A1 (SMART TARGETING, published 2010)

T1: human DLL1 (on transfected CHO cells) (human, UniProt O00548 18-723)
T1 construct: whole, on cells; also called delta-like-1
T1 sequence (looked up): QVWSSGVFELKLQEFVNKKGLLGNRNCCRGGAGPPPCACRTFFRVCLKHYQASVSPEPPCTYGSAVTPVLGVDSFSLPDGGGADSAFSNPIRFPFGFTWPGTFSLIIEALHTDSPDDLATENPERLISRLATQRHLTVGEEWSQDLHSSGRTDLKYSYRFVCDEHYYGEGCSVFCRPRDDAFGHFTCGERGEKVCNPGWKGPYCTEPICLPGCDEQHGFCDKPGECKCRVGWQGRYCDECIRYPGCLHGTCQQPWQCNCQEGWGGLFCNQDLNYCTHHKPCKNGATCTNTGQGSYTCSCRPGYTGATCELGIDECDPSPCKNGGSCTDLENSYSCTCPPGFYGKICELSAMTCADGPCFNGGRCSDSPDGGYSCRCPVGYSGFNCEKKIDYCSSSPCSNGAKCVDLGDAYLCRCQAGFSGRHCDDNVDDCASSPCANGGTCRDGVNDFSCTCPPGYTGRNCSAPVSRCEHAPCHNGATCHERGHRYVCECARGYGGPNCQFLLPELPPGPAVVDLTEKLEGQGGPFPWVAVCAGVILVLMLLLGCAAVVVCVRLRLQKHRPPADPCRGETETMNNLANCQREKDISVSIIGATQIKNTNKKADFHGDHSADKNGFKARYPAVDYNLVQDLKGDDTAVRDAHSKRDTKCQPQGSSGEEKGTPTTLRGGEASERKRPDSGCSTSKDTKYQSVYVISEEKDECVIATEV


Legend:
pure recombinant Dll4 = molecular target: T2, pure recombinant Dll4 (human, UniProt Q9NR61 27-524); test: SPR, Biacore A100; immobilized recombinant Dll4, antibody at 20, 10, 5, 2.5 and 1.2 µg/ml
T2 construct: also called recombinant DLL4 ligand; immobilized Dll4

[1] = molecular target: T3, mouse DLL4 (on transfected CHO cells) (mouse, UniProt Q9JI71 27-686); test: flow cytometry on transfected CHO cells (STL4 as one of 'all three')
T3 construct: also called murine DLL4; murine Dll4

[2] = molecular target: T1, human DLL1 (on transfected CHO cells); test: flow cytometry on transfected CHO cells (STL4 as one of the three)
[3] = molecular target: T4, human Jagged1 (on transfected CHO cells) (human, UniProt P78504 34-1218); test: as above
T4 construct: whole, on cells

[4] = molecular target: T5, human Jagged2 (on transfected CHO cells) (human, UniProt Q9Y219 24-1238); test: as above
T5 construct: whole, on cells
T5 sequence (Q9Y219 24-1238): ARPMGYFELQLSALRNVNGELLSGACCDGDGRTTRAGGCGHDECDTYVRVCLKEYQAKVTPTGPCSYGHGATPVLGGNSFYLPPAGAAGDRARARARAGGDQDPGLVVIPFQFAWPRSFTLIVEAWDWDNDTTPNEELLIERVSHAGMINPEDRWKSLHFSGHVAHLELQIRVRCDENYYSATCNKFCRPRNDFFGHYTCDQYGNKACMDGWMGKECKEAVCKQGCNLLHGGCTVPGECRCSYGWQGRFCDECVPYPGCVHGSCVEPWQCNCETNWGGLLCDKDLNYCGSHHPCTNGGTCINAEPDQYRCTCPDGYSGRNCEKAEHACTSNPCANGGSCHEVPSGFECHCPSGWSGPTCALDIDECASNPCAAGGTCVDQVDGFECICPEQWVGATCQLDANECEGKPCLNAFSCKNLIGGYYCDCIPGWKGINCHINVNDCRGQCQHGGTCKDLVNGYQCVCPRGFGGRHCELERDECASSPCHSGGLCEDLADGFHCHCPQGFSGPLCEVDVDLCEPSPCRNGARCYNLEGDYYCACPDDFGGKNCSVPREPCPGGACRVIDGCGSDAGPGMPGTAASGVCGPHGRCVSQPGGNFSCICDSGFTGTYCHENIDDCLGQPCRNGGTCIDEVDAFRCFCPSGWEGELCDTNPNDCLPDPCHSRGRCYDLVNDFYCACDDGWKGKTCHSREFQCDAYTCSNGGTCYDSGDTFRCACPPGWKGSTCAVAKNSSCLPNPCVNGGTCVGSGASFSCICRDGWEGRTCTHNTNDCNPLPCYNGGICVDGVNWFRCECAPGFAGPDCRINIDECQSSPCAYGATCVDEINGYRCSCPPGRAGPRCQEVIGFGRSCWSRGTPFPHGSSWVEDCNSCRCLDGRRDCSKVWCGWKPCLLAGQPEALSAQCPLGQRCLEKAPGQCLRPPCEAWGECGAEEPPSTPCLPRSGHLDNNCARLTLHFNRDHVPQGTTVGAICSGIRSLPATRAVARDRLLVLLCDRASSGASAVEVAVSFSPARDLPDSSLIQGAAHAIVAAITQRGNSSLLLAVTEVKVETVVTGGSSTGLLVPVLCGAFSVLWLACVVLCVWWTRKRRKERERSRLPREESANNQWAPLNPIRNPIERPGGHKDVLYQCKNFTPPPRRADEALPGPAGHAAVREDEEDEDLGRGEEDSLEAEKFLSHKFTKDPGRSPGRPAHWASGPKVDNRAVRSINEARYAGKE

T2 sequence (Q9NR61 27-524 limits assumed): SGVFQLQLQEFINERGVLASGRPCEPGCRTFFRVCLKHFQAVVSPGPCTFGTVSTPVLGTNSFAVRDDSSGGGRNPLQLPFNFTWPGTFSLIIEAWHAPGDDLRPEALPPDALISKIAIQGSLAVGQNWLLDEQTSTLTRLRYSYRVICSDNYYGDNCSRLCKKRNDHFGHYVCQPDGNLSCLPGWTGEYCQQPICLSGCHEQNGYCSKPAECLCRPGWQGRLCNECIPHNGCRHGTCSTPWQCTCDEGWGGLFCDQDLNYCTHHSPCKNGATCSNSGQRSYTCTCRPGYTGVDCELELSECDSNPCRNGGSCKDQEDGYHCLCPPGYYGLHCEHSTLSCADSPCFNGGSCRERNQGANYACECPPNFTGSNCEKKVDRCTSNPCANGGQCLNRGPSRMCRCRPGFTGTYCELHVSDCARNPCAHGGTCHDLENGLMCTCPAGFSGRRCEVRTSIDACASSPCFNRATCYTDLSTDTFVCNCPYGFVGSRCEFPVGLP
T4 sequence (P78504 34-1218): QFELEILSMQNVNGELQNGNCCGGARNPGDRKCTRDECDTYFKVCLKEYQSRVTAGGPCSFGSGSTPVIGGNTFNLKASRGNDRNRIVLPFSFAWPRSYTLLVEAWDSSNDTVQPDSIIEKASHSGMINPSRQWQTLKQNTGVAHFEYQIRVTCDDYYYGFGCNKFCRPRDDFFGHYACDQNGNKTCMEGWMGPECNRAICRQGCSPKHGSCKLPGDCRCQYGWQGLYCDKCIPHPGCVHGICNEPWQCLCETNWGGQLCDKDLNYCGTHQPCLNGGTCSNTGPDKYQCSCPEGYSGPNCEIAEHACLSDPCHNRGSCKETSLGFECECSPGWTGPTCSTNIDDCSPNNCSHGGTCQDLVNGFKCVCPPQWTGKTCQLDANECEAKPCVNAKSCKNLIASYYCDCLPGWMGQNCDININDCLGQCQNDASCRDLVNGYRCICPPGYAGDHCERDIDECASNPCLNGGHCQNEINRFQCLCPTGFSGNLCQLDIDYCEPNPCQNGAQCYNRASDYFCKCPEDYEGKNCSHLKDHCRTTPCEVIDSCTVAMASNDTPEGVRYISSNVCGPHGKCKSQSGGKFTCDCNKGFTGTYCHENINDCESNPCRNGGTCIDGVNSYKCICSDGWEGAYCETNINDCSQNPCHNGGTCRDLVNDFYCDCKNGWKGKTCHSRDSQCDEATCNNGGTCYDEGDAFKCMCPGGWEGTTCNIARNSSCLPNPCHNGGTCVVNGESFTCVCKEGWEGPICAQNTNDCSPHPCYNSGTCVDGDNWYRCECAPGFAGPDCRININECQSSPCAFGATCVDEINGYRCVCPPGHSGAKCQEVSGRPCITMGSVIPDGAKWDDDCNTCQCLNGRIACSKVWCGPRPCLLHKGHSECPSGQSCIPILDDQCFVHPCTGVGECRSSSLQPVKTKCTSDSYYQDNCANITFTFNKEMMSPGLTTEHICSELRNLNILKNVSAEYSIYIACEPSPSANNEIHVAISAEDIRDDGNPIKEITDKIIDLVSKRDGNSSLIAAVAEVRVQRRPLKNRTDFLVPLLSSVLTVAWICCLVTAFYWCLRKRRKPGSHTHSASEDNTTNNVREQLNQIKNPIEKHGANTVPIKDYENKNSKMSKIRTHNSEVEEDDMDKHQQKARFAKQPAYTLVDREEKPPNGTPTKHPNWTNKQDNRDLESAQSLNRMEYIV
T3 sequence (Q9JI71 other isoform, or with tags, fused parts or gaps limits assumed): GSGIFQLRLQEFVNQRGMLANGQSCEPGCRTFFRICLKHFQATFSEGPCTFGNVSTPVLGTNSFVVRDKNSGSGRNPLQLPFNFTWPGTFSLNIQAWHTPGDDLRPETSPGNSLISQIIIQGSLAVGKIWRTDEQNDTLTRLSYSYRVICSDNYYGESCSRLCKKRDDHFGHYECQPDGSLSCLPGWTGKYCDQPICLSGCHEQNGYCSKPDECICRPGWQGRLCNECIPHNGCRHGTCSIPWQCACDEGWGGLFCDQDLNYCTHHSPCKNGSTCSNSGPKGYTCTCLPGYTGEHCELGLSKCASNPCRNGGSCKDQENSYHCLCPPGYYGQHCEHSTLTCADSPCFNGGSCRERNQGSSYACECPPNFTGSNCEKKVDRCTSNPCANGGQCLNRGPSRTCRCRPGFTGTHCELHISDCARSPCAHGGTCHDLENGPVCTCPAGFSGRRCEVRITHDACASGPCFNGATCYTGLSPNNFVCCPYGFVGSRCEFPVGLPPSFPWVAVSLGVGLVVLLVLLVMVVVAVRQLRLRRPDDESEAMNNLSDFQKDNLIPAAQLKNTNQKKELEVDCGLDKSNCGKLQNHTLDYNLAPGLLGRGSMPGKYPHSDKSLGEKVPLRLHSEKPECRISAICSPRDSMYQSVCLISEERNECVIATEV

| Ka (pure recombinant Dll4) | Kd (pure recombinant Dll4) | koff (pure recombinant Dll4) | binding result [1] | binding result [2] | binding result [3] | binding result [4] | Binder |
| --- | --- | --- | --- | --- | --- | --- | --- |
| 2.45e+09 M⁻¹ | 0.408 nM | 8.79e-05 s⁻¹ | – | – | – | – | cSTL4 (antibody, V domains shown, Chimeric form of STL4: mouse VH and VL fused to human IgG heavy and kappa constant regions, expressed from pCAcc vectors; also called chimeric anti-Dll4 antibody; chimeric antibody; not shown: human IgG heavy constant region CH1-H-CH2-CH3; human immunoglobulin kappa light chain constant region) VH: EVQLQQSGPELVKPGASVKMSCKASGYTFTSYVMHWVKQKPGQGLEWIGYIIPYNDGTKYNEKFKGKATLTSDKSSSTAYMELSSLTSEDSAVYYCARSEDYDHFDYWGQGTTVTVSS VL: QIVLSQSPVILSASPGEKVTMTCRASSSVSFMHWYQQKPGSSPKPWIYATSNLTSGVPTRFSGSGSGTSYSLTISRVEAEDAATYYCQQWSSNPFTFGSGTKLEIKR |
| – | – | – | no binding | no binding | no binding | no binding | STL4 (antibody, V domains shown, Mouse monoclonal antibody (BALB/c hybridoma, purified from ascites); mouse IgG1 served as the control; also called anti-DLL4 antibody; anti-Dll4-antibody (STL4)) VH: EVQLQQSGPELVKPGASVKMSCKASGYTFTSYVMHWVKQKPGQGLEWIGYIIPYNDGTKYNEKFKGKATLTSDKSSSTAYMELSSLTSEDSAVYYCARSEDYDHFDYWGQGTTVTVSS VL: QIVLSQSPVILSASPGEKVTMTCRASSSVSFMHWYQQKPGSSPKPWIYATSNLTSGVPTRFSGSGSGTSYSLTISRVEAEDAATYYCQQWSSNPFTFGSGTKLEIKR |
